Laboratory results reported in article PMC4516155 (FASEB journal : official publication of the Federation of …, 2013).
Positions count from the first letter of the chain named. Names may count otherwise.

T1: GST-FE65 PTB1 (bacterially expressed) (UniProt O00213 361-514)
T1 sequence (looked up): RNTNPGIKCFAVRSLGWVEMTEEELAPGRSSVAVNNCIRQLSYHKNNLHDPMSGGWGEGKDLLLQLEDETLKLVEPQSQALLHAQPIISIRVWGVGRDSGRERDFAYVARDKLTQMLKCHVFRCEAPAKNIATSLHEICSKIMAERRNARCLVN

T2: GST-FE65 PTB1 (mammalian, pCIneo-GST-FE65 PTB1) (human, UniProt O00213 361-514)
T2 sequence (looked up): T1 sequence (looked up)

B1: Myc/His-tagged wild-type ARF6 (natural protein, UniProt P62330 1-175, looked up)
chain: MGKVLSKIFGNKEMRILMLGLDAAGKTTILYKLKLGQSVTTIPTVGFNVETVTYKNVKFNVWDVGGQDKIRPLWRHYYTGTQGLIFVVDCADRDRIDEARQELHRIINDREMRDAIILIFANKQDLPDAMKPHEIQEKLGLTRIRDRNWYVQPSCATSGDGLYEGLTWLTSNYKS
B2: Myc/His-tagged ARF6 T27N (natural protein, UniProt P62330 1-175, looked up)
chain: B1 chain with T27N
B3: Myc/His-tagged ARF6 Q67L (natural protein, UniProt P62330 1-175, looked up)
chain: B1 chain with Q67L

How the values were obtained:
[1] = target: T1, GST-FE65 PTB1 (bacterially expressed); test: pull-down
[2] = target: T2, GST-FE65 PTB1 (mammalian, …); test: pull-down

Binder | percent of input pulled down [1] [%] | percent of input pulled down [2] [%]
B1 | 12 | 
B2 | 27 | 23
B3 | 0.7 | 2
